Assay results from US20060141569A1 (published 2006).

Key:
[1] = target: T1, C5aR transfected into CHEM-1 cells using the pHS vector (UniProt P21730 1-350); assay: binding
T1 chain: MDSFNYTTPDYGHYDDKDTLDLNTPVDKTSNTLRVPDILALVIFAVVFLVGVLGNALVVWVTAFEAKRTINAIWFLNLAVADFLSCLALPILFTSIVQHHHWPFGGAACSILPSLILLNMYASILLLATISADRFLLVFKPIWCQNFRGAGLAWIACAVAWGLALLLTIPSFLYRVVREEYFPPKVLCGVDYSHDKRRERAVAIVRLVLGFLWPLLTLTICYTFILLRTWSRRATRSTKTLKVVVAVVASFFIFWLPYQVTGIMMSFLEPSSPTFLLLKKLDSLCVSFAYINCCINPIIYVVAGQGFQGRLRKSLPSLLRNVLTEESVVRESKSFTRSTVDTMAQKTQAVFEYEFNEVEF

[2] = target: C5aR+Gα15/CHO; assay: binding; two sites, site 1
[3] = target: C5aR+Gα15/CHO; assay: binding; two sites, site 2

B1: C5a (ligand)
chain: TLQKKIEEIAAKYKHSVVKKCCYDGACVNNDETCEQRAARISLGPRCIKAFTECCVVASQLRANISHKDMQLGR
Ki [1]: 500 pM
Ki [2]: 600 pM
Ki [3]: 34000 pM
